biological target: antiserum C2; assay: competition ELISA: peptide added to C2 on plate-bound hTNFα

| Binder | OD450 with peptide | inhibition rate (%) |
| --- | --- | --- |
| DKPVAHVVANPQAEG [hTNFα peptide H(10-24)] | 1.74 | 8 |
| AHVVANPQAEGQLQW [hTNFα peptide H(14-28)] | 1.65 | 7 |
| LQWLNRRANALLANG [hTNFα peptide H(26-40)] | 0.313 | 82 |
| ANGVELRDNQLVVPS [hTNFα peptide H(38-52)] | 1.42 | 19 |
| SEGLYLIYSQVLFKG [hTNFα peptide H(52-66)] | 1.35 | 21 |
| QVLFKGQGCPSTHVL [hTNFα peptide H(61-75)] | 1.73 | 10 |
| HVLLTHTISRIAVSY [hTNFα peptide H(73-87)] | 1.79 | -1 |
| ISRIAVSYQTKVNLL [hTNFα peptide H(80-94)] | 1.7 | 12 |
| QTKVNLLSAIKSPCQ [hTNFα peptide H(88-102)] | 1.78 | 5 |
| LSAIKSPCQRETPEG [hTNFα peptide H(94-108)] | 1.79 | 6 |
| LGGVFQLEKGDRLSA [hTNFα peptide H(120-134)] | 1.77 | 10 |
| GDRLSAEINRPDYLD [hTNFα peptide H(129-143)] | 1.78 | 12 |

biological target: antiserum B1; assay: competition ELISA: peptide added to B1 on plate-bound hTNFα

| Binder | OD450 with peptide | inhibition rate (%) |
| --- | --- | --- |
| VRSSSRTPSDKPVAH [hTNFα peptide T(1-15)] | 1.1 | 13 |
| SDKPVAHVVANPQAE [hTNFα peptide T(9-23)] | 1.06 | 4 |
| VVANPQAEGQLQWLN [hTNFα peptide T(16-30)] | 1.06 | 9 |
| GQLQWLNRRANALLA [hTNFα peptide T(24-38)] | 0.103 | 92 |
| RRANALLANGVELRD [hTNFα peptide T(31-45)] | 0.106 | 91 |
| NGVELRDNQLVVPSE [hTNFα peptide T(39-53)] | 1.01 | 23 |
| NQLVVPSEGLYLIYS [hTNFα peptide T(46-60)] | 1.16 | 10 |
| LTHTISRIAVSYQTK [hTNFα peptide T(76-90)] | 1.12 | 13 |
| VNLLSAIKSPCQRET [hTNFα peptide T(91-105)] | 1.17 | 3 |
| PCQRETPEGAEAKPW [hTNFα peptide T(100-114)] | 1.06 | 14 |
| PIYLGGVFQLEKGDR [hTNFα peptide H(117-131)] | 1.2 | 0 |
| DRLSAEINRPDYLDF [hTNFα peptide T(130-144)] | 1.11 | 9 |

Reference: patent EP4624487A1
